Test results: patent US20140223597A1, “Mutated Hydroxyphenylpyruvate Dioxygenase, DNA Sequence and Isolation of Plants Which Are Tolerant To HPPD Inhibitor Herbicides” (Bayer CropScience AG, priority 2008, published 2014)
Substitutions are numbered along the chain they refer to.

What was measured:
[1] = test system: Arabidopsis thaliana HPPD; assay: Assay for HPPD activity (4-HPP consumption, DNP photometric readout at 405 nm) in presence and absence of Tembotrione; format: biochemical; conditions: uninhibited enzyme activity set to 100%, 444 nM HPPD, 500 μM 4-HPP, 1 h room temperature
Method: (§1) HPPD produces homogentisate and CO2 from 4-HPP and O2. The enzyme is incubated with its substrate 4-HPP in the presence or absence of an inhibitor. L-ascorbic acid is present as a reductant to retain the active site iron in the ferrous form and Catalase is present to degrade toxic H2O2. After an incubation time of one hour, the reaction is stopped by addition of 2,4-Dinitrophenylhydrazine (DNP). DNP forms a hydrazone derivative with the remaining 4-HPP molecules in the assay mixture which appears in an amber-brown colour at an alkaline pH. The amount of unconsumed 4-HPP is measured photometrically at 405 nm.
(§2) For preparation of inhibitor stock solutions, Tembotrione (MW=440.82) and DKN (Mw=359.3) are dissolved in DMSO to a concentration of 10 mM. […] Further dilutions are made with ddH2O to obtain the inhibitor solutions used in the assay (5 μM, 10 μM and 20 μM). […] A 2% DMSO solution provides for half of the assay mixture in uninhibited reactions to normalize a possible inhibiting effect of DMSO.
(§3) The assay is designed for a HPPD concentration of 444 nM on a monomeric basis and a 4-HPP concentration of 500 μM. This corresponds to 44.4 pmol HPPD and 50 nmol 4-HPP in a 100 μL-assay mixture, resulting in an approximate 1000-fold excess of substrate in relation to the enzyme. The calculated theoretical molecular weight of an AtHPPD subunit is 49.515 kD which results in 2.2 μg HPPD per assay mixture. The calculated theoretical molecular weight of a PfHPPD subunit is 41.205 kD, resulting in 1.8 μg HPPD per assay mixture. The enzyme solution provides for one quarter of the assay mixture volume, so enzyme stock solutions are produced by diluting AtHPPD solutions to 88 μg*mL^−1 with 50 mM TRIS buffer; PfHPPD solutions are diluted to 72 μg*mL^−1.
(§4) The inhibitor concentrations (2.5 μM, 5 μM and 10 μM) provide for 5-fold, 10-fold and 20-fold excess of inhibitor compared to the amount of enzyme. A buffer/substrate solution is prepared which provides for one quarter of the assay mixture. 2.5 mL of buffer/substrate solution contain 1 mL 1 M TRIS buffer, 500 μL 10 mM 4-HPP solution, 500 μL 200 mM L-ascorbic acid solution, 13 μL Catalase solution and 487 μL ddH2O. The assay is carried out in Greiner F-bottom 96 well microplates and all reactions are carried out as triplicates. The controls are carried out sixfold per plate and contain either 25 μL 50 mM TRIS instead of HPPD solution (corresponding to 0% consumption of 4-HPP) or a buffer/substrate solution that contains 500 μL 1 M TRIS instead of 500 μL 10 mM 4-HPP (corresponding to 100% consumption of HPP). The reaction is started by addition of 25 μL HPPD solution to a mixture of 50 μL of the respective inhibitor solution or 50 μL 2% DMSO and 25 μL buffer/substrate solution. The reaction is allowed to proceed for 1 h at room temperature. The reaction is stopped and coloration of 4-HPP is induced by addition of 50 μL 0.04% DNP/3.8 N HCl solution. After 15 min, addition of 100 μL 5 N KOH leads to the colour shift of the hydrazone derivative. Photometric measurement with a BMG FLUOstar Galaxy microplate reader is carried out immediately at 405 nm and data obtained is used for analysis of HPPD activities in presence and absence of an inhibitor.

[2] = test system: Pseudomonas fluorescens HPPD; assay: as above; format: biochemical; conditions: uninhibited enzyme activity set to 100%, 444 nM HPPD, 500 μM 4-HPP, 1 h room temperature
Method: as §1, §2, §3, §4

B1: Gly422 mutant Asn: Arabidopsis thaliana HPPD (SEQ ID NO 4) with Gly422 replaced by Asn, N-terminal His6-tag (protein, UniProt P93836 1-445, looked up, variant G422N)
4-hydroxyphenylpyruvate …: MGHQNAAVSENQNHDDGAASSPGFKLVGFSKFVRKNPKSDKFKVKRFHHIEFWCGDATNVARRFSWGLGMRFSAKSDLSTGNMVHASYLLTSGDLRFLFTAPYSPSLSAGEIKPTTTASIPSFDHGSCRSFFSSHGLGVRAVAIEVEDAESAFSISVANGAIPSSPPIVLNEAVTIAEVKLYGDVVLRYVSYKAEDTEKSEFLPGFERVEDASSFPLDYGIRRLDHAVGNVPELGPALTYVAGFTGFHQFAEFTADDVGTAESGLNSAVLASNDEMVLLPINEPVHGTKRKSQIQTYLEHNEGAGLQHLALMSEDIFRTLREMRKRSSIGGFDFMPSPPPTYYQNLKKRVGDVLSDDQIKECEELGILVDRDDQGTLLQIFTKPLGDRPTIFIEIIQRVGCMMKDEEGKAYQSGGCGGFGKNNFSELFKSIEEYEKTLEAKQLVG
modifications: N-terminal His6-tag
Relative activity (in percentage) of At HPPD mutants in presence of Tembotrione ([1]; […] Tembotrione): 39%

B2: Asp (protein, UniProt P93836 1-445, looked up, variant G422D)
4-hydroxyphenylpyruvate …: B1 4-hydroxyphenylpyruvate … with N422D
Relative activity (in percentage) of At HPPD mutants in presence of Tembotrione ([1]; 5 μM Tembotrione): 7% | Relative activity (in percentage) of At HPPD mutants in presence of Tembotrione ([1]; 10 μM Tembotrione): 10% | Relative activity (in percentage) of At HPPD mutants in presence of Tembotrione ([1]; […] Tembotrione): 20% | Relative activity (in percentage) of Pf HPPD mutants in presence of Tembotrione ([2]; 5 μM Tembotrione): 9% | Relative activity (in percentage) of Pf HPPD mutants in presence of Tembotrione ([2]; 10 μM Tembotrione): 0% | Relative activity (in percentage) of Pf HPPD mutants in presence of Tembotrione ([2]; […] Tembotrione): 18%

B3: Pro (protein, UniProt P93836 1-445, looked up, variant G422P)
4-hydroxyphenylpyruvate …: B1 4-hydroxyphenylpyruvate … with N422P
Relative activity (in percentage) of At HPPD mutants in presence of Tembotrione ([1]; 5 μM Tembotrione): 0% | Relative activity (in percentage) of At HPPD mutants in presence of Tembotrione ([1]; 10 μM Tembotrione): 0% | Relative activity (in percentage) of At HPPD mutants in presence of Tembotrione ([1]; […] Tembotrione): 0% | Relative activity (in percentage) of Pf HPPD mutants in presence of Tembotrione ([2]; 5 μM Tembotrione): 4% | Relative activity (in percentage) of Pf HPPD mutants in presence of Tembotrione ([2]; 10 μM Tembotrione): 0% | Relative activity (in percentage) of Pf HPPD mutants in presence of Tembotrione ([2]; […] Tembotrione): 5%

B4: Asn (protein, UniProt P93836 1-445, looked up, variant G422N)
4-hydroxyphenylpyruvate …: B1 4-hydroxyphenylpyruvate …
Relative activity (in percentage) of At HPPD mutants in presence of Tembotrione ([1]; 5 μM Tembotrione): 26% | Relative activity (in percentage) of At HPPD mutants in presence of Tembotrione ([1]; 10 μM Tembotrione): 15% | Relative activity (in percentage) of At HPPD mutants in presence of Tembotrione ([1]; […] Tembotrione): 39%

B5: Gly422 mutant Val: Arabidopsis thaliana HPPD (SEQ ID NO 4) with Gly422 replaced by Val, N-terminal His6-tag (protein, UniProt P93836 1-445, looked up, variant G422V)
4-hydroxyphenylpyruvate …: B1 4-hydroxyphenylpyruvate … with N422V
modifications: N-terminal His6-tag
Relative activity (in percentage) of At HPPD mutants in presence of Tembotrione ([1]; […] Tembotrione): 43%

B6: Val (protein, UniProt P93836 1-445, looked up, variant G422V)
4-hydroxyphenylpyruvate …: B1 4-hydroxyphenylpyruvate … with N422V
Relative activity (in percentage) of At HPPD mutants in presence of Tembotrione ([1]; 5 μM Tembotrione): 22% | Relative activity (in percentage) of At HPPD mutants in presence of Tembotrione ([1]; 10 μM Tembotrione): 14% | Relative activity (in percentage) of At HPPD mutants in presence of Tembotrione ([1]; […] Tembotrione): 43%

B7: Met (protein, UniProt P93836 1-445, looked up, variant G422M)
4-hydroxyphenylpyruvate …: B1 4-hydroxyphenylpyruvate … with N422M
Relative activity (in percentage) of At HPPD mutants in presence of Tembotrione ([1]; 5 μM Tembotrione): 13% | Relative activity (in percentage) of At HPPD mutants in presence of Tembotrione ([1]; 10 μM Tembotrione): 12% | Relative activity (in percentage) of At HPPD mutants in presence of Tembotrione ([1]; […] Tembotrione): 18% | Relative activity (in percentage) of Pf HPPD mutants in presence of Tembotrione ([2]; 5 μM Tembotrione): 7% | Relative activity (in percentage) of Pf HPPD mutants in presence of Tembotrione ([2]; 10 μM Tembotrione): 10% | Relative activity (in percentage) of Pf HPPD mutants in presence of Tembotrione ([2]; […] Tembotrione): 16%

B8: Leu (protein, UniProt P93836 1-445, looked up, variant G422L)
4-hydroxyphenylpyruvate …: B1 4-hydroxyphenylpyruvate … with N422L
Relative activity (in percentage) of At HPPD mutants in presence of Tembotrione ([1]; 5 μM Tembotrione): 23% | Relative activity (in percentage) of At HPPD mutants in presence of Tembotrione ([1]; 10 μM Tembotrione): 14% | Relative activity (in percentage) of At HPPD mutants in presence of Tembotrione ([1]; […] Tembotrione): 31% | Relative activity (in percentage) of Pf HPPD mutants in presence of Tembotrione ([2]; 5 μM Tembotrione): 0% | Relative activity (in percentage) of Pf HPPD mutants in presence of Tembotrione ([2]; 10 μM Tembotrione): 0% | Relative activity (in percentage) of Pf HPPD mutants in presence of Tembotrione ([2]; […] Tembotrione): 4%

B9: Ser (protein, UniProt P93836 1-445, looked up, variant G422S)
4-hydroxyphenylpyruvate …: B1 4-hydroxyphenylpyruvate … with N422S
Relative activity (in percentage) of At HPPD mutants in presence of Tembotrione ([1]; 5 μM Tembotrione): 4% | Relative activity (in percentage) of At HPPD mutants in presence of Tembotrione ([1]; 10 μM Tembotrione): 0% | Relative activity (in percentage) of At HPPD mutants in presence of Tembotrione ([1]; […] Tembotrione): 18%

B10: Gly422 mutant Cys: Arabidopsis thaliana HPPD (SEQ ID NO 4) with Gly422 replaced by Cys, N-terminal His6-tag (protein, UniProt P93836 1-445, looked up, variant G422C)
4-hydroxyphenylpyruvate …: B1 4-hydroxyphenylpyruvate … with N422C
modifications: N-terminal His6-tag
Relative activity (in percentage) of At HPPD mutants in presence of Tembotrione ([1]; […] Tembotrione): 44%

B11: His (protein, UniProt P93836 1-445, looked up, variant G422H)
4-hydroxyphenylpyruvate …: B1 4-hydroxyphenylpyruvate … with N422H
Relative activity (in percentage) of At HPPD mutants in presence of Tembotrione ([1]; 5 μM Tembotrione): 31% | Relative activity (in percentage) of At HPPD mutants in presence of Tembotrione ([1]; 10 μM Tembotrione): 40% | Relative activity (in percentage) of At HPPD mutants in presence of Tembotrione ([1]; […] Tembotrione): 50% | Relative activity (in percentage) of Pf HPPD mutants in presence of Tembotrione ([2]; 5 μM Tembotrione): 13% | Relative activity (in percentage) of Pf HPPD mutants in presence of Tembotrione ([2]; 10 μM Tembotrione): 11% | Relative activity (in percentage) of Pf HPPD mutants in presence of Tembotrione ([2]; […] Tembotrione): 26%

B12: Phe (protein, UniProt P93836 1-445, looked up, variant G422F)
4-hydroxyphenylpyruvate …: B1 4-hydroxyphenylpyruvate … with N422F
Relative activity (in percentage) of At HPPD mutants in presence of Tembotrione ([1]; 5 μM Tembotrione): 16% | Relative activity (in percentage) of At HPPD mutants in presence of Tembotrione ([1]; 10 μM Tembotrione): 11% | Relative activity (in percentage) of At HPPD mutants in presence of Tembotrione ([1]; […] Tembotrione): 30% | Relative activity (in percentage) of Pf HPPD mutants in presence of Tembotrione ([2]; 5 μM Tembotrione): 12% | Relative activity (in percentage) of Pf HPPD mutants in presence of Tembotrione ([2]; 10 μM Tembotrione): 3% | Relative activity (in percentage) of Pf HPPD mutants in presence of Tembotrione ([2]; […] Tembotrione): 33%

B13: Gly422 mutant His: Arabidopsis thaliana HPPD (SEQ ID NO 4) with Gly422 replaced by His, N-terminal His6-tag (protein, UniProt P93836 1-445, looked up, variant G422H)
4-hydroxyphenylpyruvate …: B1 4-hydroxyphenylpyruvate … with N422H
modifications: N-terminal His6-tag
Relative activity (in percentage) of At HPPD mutants in presence of Tembotrione ([1]; 5 μM Tembotrione): about 40% | Relative activity (in percentage) of At HPPD mutants in presence of Tembotrione ([1]; 10 μM Tembotrione): about 40% | Relative activity (in percentage) of At HPPD mutants in presence of Tembotrione ([1]; […] Tembotrione): 51%

B14: Cys (protein, UniProt P93836 1-445, looked up, variant G422C)
4-hydroxyphenylpyruvate …: B1 4-hydroxyphenylpyruvate … with N422C
Relative activity (in percentage) of At HPPD mutants in presence of Tembotrione ([1]; 5 μM Tembotrione): 27% | Relative activity (in percentage) of At HPPD mutants in presence of Tembotrione ([1]; 10 μM Tembotrione): 19% | Relative activity (in percentage) of At HPPD mutants in presence of Tembotrione ([1]; […] Tembotrione): 44%
